Test results as given in patent US20180086841A1 (Merck Sharp & Dohme, published 2018).

T1: Macaca mulatta CD27 (mmCD27) (Macaca mulatta (rhesus) / Macaca …, UniProt P26842 21-260 (human entry))
T1 construct: also called Rhesus CD27; rhesus monkey CD27
T1 chain: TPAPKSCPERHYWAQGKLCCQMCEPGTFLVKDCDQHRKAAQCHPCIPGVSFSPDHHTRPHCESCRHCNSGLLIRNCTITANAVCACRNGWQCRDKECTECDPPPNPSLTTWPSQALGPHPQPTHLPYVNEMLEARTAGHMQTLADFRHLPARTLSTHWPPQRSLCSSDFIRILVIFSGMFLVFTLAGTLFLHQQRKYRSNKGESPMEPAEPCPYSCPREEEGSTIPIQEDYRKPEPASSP

T2: H36A
T2 construct: also called hCD27 H36A
T2 receptor chain: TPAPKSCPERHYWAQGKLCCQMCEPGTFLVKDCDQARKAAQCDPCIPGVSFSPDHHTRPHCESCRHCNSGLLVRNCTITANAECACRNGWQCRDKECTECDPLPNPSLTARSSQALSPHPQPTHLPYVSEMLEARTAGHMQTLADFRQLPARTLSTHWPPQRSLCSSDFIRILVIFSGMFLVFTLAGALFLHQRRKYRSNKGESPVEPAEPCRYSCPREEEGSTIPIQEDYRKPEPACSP

T3: R37A
T3 construct: also called hCD27 R37A
T3 receptor chain: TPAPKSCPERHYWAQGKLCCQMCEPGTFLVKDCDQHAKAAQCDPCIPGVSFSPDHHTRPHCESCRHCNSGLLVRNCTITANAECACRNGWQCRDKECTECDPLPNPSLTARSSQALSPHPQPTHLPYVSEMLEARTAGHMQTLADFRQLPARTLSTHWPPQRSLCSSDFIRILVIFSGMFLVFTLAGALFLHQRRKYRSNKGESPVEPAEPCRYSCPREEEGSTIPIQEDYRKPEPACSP

T4: K38A
T4 construct: also called hCD27 K38A
T4 receptor chain: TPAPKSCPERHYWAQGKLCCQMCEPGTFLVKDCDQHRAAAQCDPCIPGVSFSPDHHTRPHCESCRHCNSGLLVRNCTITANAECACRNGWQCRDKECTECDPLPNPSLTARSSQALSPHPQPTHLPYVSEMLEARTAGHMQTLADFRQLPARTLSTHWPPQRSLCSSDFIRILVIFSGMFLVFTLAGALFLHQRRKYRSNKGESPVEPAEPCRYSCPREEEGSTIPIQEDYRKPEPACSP

T5: P8A
T5 construct: also called hCD27 P8A
T5 receptor chain: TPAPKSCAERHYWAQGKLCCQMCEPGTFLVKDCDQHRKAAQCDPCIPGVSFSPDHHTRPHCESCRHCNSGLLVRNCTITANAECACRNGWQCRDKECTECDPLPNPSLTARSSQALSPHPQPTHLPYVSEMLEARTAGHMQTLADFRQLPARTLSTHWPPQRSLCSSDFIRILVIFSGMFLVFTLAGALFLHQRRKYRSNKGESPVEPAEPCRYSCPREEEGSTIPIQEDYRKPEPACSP

T6: K31A
T6 construct: also called hCD27 K31A
T6 receptor chain: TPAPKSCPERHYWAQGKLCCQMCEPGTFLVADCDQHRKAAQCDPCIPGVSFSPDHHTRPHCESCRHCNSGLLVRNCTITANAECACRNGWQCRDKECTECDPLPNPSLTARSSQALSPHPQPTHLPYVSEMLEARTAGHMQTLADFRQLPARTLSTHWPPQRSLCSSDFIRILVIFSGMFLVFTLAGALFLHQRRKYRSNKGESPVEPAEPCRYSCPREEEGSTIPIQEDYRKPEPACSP

T7: Q41A
T7 construct: also called hCD27 Q41A
T7 receptor chain: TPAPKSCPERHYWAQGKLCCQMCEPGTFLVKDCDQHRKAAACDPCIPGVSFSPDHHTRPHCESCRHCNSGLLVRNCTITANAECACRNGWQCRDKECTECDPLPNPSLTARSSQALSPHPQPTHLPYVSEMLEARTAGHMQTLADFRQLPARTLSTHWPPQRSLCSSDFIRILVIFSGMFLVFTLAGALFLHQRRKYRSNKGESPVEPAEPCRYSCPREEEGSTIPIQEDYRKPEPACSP

T8: D43A
T8 construct: also called hCD27 D43A
T8 receptor chain: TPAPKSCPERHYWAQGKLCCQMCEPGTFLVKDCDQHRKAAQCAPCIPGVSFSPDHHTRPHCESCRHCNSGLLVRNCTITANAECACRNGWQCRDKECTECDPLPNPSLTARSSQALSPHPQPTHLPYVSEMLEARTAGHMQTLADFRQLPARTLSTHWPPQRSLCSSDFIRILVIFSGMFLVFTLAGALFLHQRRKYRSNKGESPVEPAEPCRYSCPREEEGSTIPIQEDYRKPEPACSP


Assays:
[1] = biological target: T9, human CD27 (A59T) (human, UniProt P26842 21-260); assay: cell ELISA on CHO-K1 transfectants (selection of the clone)
T9 construct: also called hCD27 (A59T); human CD27 variant p.Ala59Thr
Description: (§1) On day eight, supernatants were screened by cell-ELISA for reactivity to hCD27 as described above. In addition, the hCD27-reactive supernatants were tested for binding to Macaca Mulatta CD27 (mmCD27) expressed on CHO-K1 cells. […] In the cell-ELISA, all incubation steps were followed by a wash step with PBST (PBS with 0.01% Tween 20). Parental CHO-K1, CHO-K1.hCD27, or CHO-K1.mmCD27 cells were seeded (40,000 cells/well) in tissue culture plates and incubated overnight at 37° C. The next day, culture medium was removed and cells were incubated for one hour with (dilutions of) B-cell supernatants at 37° C. […] Subsequently, cells were washed 6 times with PBST and anti-hCD27 immunoreactivity was visualized with 100 μl TMB Stabilized Chromagen (Invitrogen, cat. no. SB02). Reactions were stopped with 100 μl 0.5 M H₂SO₄ and absorbances were read at 460 and 620 nm.
(§2) Hybridoma supernatants were tested in Cell-ELISA experiments for binding to CHO-K1.mmCD27 or CHO-K1 cells expressing hCD27 (A59T), as described above. […] A serial dilution of the supernatants was added.

[2] = biological target: T1, Macaca mulatta CD27 (mmCD27); assay: as above
Description: as §1, §2

[3] = biological target: T10, human CD27 (human, UniProt P26842 21-260); assay: flow cytometry MFI, CD8+ T cells of human PBMC, N=2 donors
T10 construct: also called hCD27; HsCD27
Description: Labeled cells were washed by re-suspending them in 150 ul of staining buffer (SB) followed by centrifugation at 300 g for 5 minutes. Cells were then resuspended in 100 ul of SB containing primary anti-CD27 antibodies at various concentrations, incubated in the dark at 4° C. for 30 minutes, followed by washing and centrifugation steps as previously described. […] Cells were incubated for 30 minutes at 4° C. in the dark, followed by washing and centrifugation steps. Next, cells were stained with a cocktail of phenotypic antibodies for surface markers (CD3, CD4, CD8, CD11b) and incubated for 30 minutes at 4° C. in the dark, followed by washing and centrifugation steps. […] Samples were acquired in a LSR-Fortessa flow cytometer (BD Biosciences) using the high throughput sampler and data analyzed by FlowJo software (Tree Star Inc).

[4] = biological target: T2, H36A; assay: flow cytometry on CHO-K1 transfectants, left sub-column, cell hatched (loss of binding)
Description: (§3) The ability of several anti-hCD27 antibodies to bind to a series of hCD27 alanine mutants was determined using CHO-K1 cells, transiently transfected pCI-neo empty vector, pCI-neo.hCD27 and several pCI-neo.CD27Ala mutant constructs.
(§4) Detached cells were transferred to 96 wells round-bottomed well plates at approximately 1.2×10⁵ cells/well. After spinning down the cells, discarding the supernatants and re-suspending the cells in the residual volume, the primary antibodies were added and incubated for 30 minutes at 4° C. Cells were washed three times with DPBS/BSA 1%, followed by centrifugation, discarding of the supernatants and re-suspension in the residual volume. […] After washing once, antibody binding was detected using the HTS plate reader (FACS Canto II) and FlowJo software for data analysis. Debris, dead cells and doublets were excluded from the analysis. Binding was expressed as the geometric mean of the FITC signal, relative to antibody binding to hCD27, which was set at 100%.

[5] = biological target: T3, R37A; assay: as above
Description: as §3, §4

[6] = biological target: T4, K38A; assay: as above
Description: as §3, §4

[7] = biological target: T5, P8A; assay: as above
Description: as §3, §4

[8] = biological target: T9, human CD27 (A59T); assay: flow cytometry on transiently transfected CHO-K1 cells
[9] = biological target: T6, K31A; assay: flow cytometry on CHO-K1 transfectants, cell hatched (loss of binding)
Description: as §3, §4

[10] = biological target: T7, Q41A; assay: as above
Description: as §3, §4

[11] = biological target: T8, D43A; assay: as above
Description: as §3, §4

Row | binding result [1] | binding result [2] | EC50 [3] [pM] | binding, WT hCD27 = 100 (GM FITC) [4] [%] | binding, WT hCD27 = 100 (GM FITC) [5] [%] | binding, WT hCD27 = 100 (GM FITC) [6] [%] | binding, WT hCD27 = 100 (GM FITC) [7] [%] | binding result [8] | binding, WT hCD27 = 100 (GM FITC) [9] [%] | binding, WT hCD27 = 100 (GM FITC) [10] [%] | binding, WT hCD27 = 100 (GM FITC) [11] [%] | Binder
1 | binds | binds | 19.4 | 54.1 | 50.3 | 48.2 | 44.9 |  |  |  |  | hCD27.131A (mouse parental 131A) (antibody, mouse IgG1, V domains shown, Mouse IgG1 antibody; also called mouse hCD27.131A) VH: QIQLVQSGPELKKPGETVKISCKASGYTFTNYGMNWVKQAPGKGLKWMGWINTNTGEPTYAEEFKGRFAFSLETSATTAYLQINNLKNEDTATYFCAREGDAMDYWGQGTSVTVSS VL: QIVLTQSPAIMSASPGEKVTMTCSASSSVSYMHWYQQKSGTSPKRWIYDTSKLASGVPARFSGSGSGTSYSLTISSMEAEDAATYYCQQWNSYPFTFGSGTKLEIK
2 |  |  |  |  |  |  |  | no binding | 30.3 | 33.9 | 31 | hCD27.15-6B (antibody, human IgG4 S228P, kappa, V domains shown, also called hCD27.15 (humanized 6B); humanized hCD27.15 (human IgG4, Clone 6B)) VH: QVQLVQSGAEVKKPGASVKVSCKASGFIIKATYMHWVRQAPGQRLEWMGRIDPANGETKYDPKFQVRVTITADTSASTAYMELSSLRSEDTAVYYCARYAWYFDVWGQGTLVTVSS VL: DIQMTQSPSSLSASVGDRVTITCRASENIYSFLAWYQQKPGKAPKLLIYHAKTLAEGVTSRFSGSGSGTDFTLTISSLQPEDSATYYCQHYYGSPLTFGQGTRLEIKR
